Article PMC9770967, “Native holdup (nHU) to measure binding affinities from cell extracts” (Science Advances, 2022)
Blank lines part the entries; values can stand above or below the molecule they belong to.

What was measured:
Format in all cases: binding, human
[1] = target: SCRIB_PDZ_1; test: nHU-MS, SCRIB_PDZ_1 bait, total Jurkat extracts (Exploris MS)
Source text: (§1) To further establish the repeatability and robustness of the nHU-MS assay, we repeated the experiments using a different mass spectrometer and six different PDZ domain baits taken from SCRIB (PDZ_1 and PDZ_2), discs large MAGUK scaffold protein 1 (DLG1, PDZ_1, and PDZ_2), Tax1 binding protein 3 (TAX1BP3), and SNX27 (fig. S3B and table S1). […] Of the studied baits, the PDZ domain of SNX27 turned out to be the most promiscuous with 103 statistically significant interaction partners (while 180 SNX27 binding partners were identified in total on the basis of the three independent nHU-MS experiments).
(§2) For saturating streptavidin resin with biotinylated peptides or biotin, 50 μl of streptavidin resin was mixed with biotin or peptide at 40 to 60 μM concentration in 6 to 6.5 resin volume for 60 min. To saturate streptavidin resin with biotinylated proteins, 50 μl of streptavidin resin (Streptavidin Sepharose High Performance, Cytiva) was mixed with biotinylated MBP or MBP-PDZ at 40 to 50 μM concentration in 20× resin volume for 60 min. After saturation, resins were washed a single time [10 resin volume, holdup buffer: 50 mM tris (pH 7.5), 300 mM NaCl, and 1 mM TCEP, 0.22-μm filtered] and were depleted with biotin (10 resin volume, 10 min, holdup buffer supplemented with 100 μM biotin). Last, resins were washed two times (10 resin volume, holdup buffer).
(§3) For single-point nHU experiments carried out at ~10 μM bait concentration, 50 μl of saturated streptavidin resin was mixed with 200 μl of cell lysate (2 mg/ml). Titration experiments were carried out by mixing control and bait-saturated resin and keeping the total resin volume constant; e.g., ~5 μM bait concentration can be achieved by mixing 25 μl of bait-saturated streptavidin resin with 25 μl of control resin and 200 μl of cell lysate (2 mg/ml). Control and bait-saturated resins were prepared in larger amounts, and a serial dilution was prepared with these presaturated resins to achieve different resin ratios.
(§4) Unless specified elswhere, the nHU mixture was incubated at 4°C for 2 hours. After the incubation ended, the resin was separated from the supernatant by a brief centrifugation (15 s, 2000 g). Then, half of the supernatant was removed by pipetting without any delay to avoid any resin contamination; e.g., 100 μl of supernatant is collected if 200 μl of cell lysate was used as analyte. Alternatively, the supernatant can be centrifuged an additional time to clarify it further, removing any possible resin contamination. In principle, the separation of the supernatant should be as fast as possible since any delay can perturb the equilibrium. […] Alternatively, the resin can be separated from the supernatant using filter plates (e.g., various products of Millipore, Burlington, MA) or spin columns (e.g., Pierce spin cups—cellulose acetate filter from Thermo Fisher Scientific, Waltham, MA) to achieve faster separation.
The nHU samples were precipitated with trichloroacetic acid (TCA) 20% overnight at 4°C and centrifuged at 14,000 rpm for 10 min at 4°C. The protein pellets were washed twice with 1 ml of cold acetone and air-dried. The protein extracts were solubilized in 8 M urea, reduced with 5 mM TCEP for 30 min, and alkylated with 10 mM iodoacetamide for 30 min in the dark. Double digestion was performed at 37°C with 500 ng of endoproteinase Lys-C (Wako, Richmond, USA) for 4 hours, followed by fourfold dilution and an overnight digestion with 500 ng of trypsin (Promega, Charbonnieres les Bains, France). Peptide mixtures were then desalted on a C18 spin-column and dried on a speed vacuum.
(§5) Samples were analyzed using an Ultimate 3000 nano-RSLC coupled in line via a nano-electrospray ionization source, with an LTQ-Orbitrap ELITE mass spectrometer (Thermo Fisher Scientific, San Jose, CA) or with the Orbitrap Exploris 480 mass spectrometer (Thermo Fisher Scientific, Bremen, Germany) equipped with a high field asymmetric ion mobility spectrometry (FAIMS) module. […]

[2] = target: SCRIB_PDZ_2; test: nHU-MS, SCRIB_PDZ_2 bait, total Jurkat extracts (Exploris MS)
Source text: as §1, §2, §3, §4
(§6) The nHU samples were precipitated with trichloroacetic acid (TCA) 20% overnight at 4°C and centrifuged at 14,000 rpm for 10 min at 4°C. The protein pellets were washed twice with 1 ml of cold acetone and air-dried. […]
as §5

[3] = tested on: SNX27_PDZ; test: nHU-MS, SNX27_PDZ bait, total Jurkat extracts, series 2 (Exploris MS); details: Jurkat, series 2, n = 3
Source text: as §1, §2, §3, §4, §6, §5

[4] = tested on: TX1BP3_PDZ; test: nHU-MS, TX1BP3_PDZ (TAX1BP3) bait, total Jurkat extracts (Exploris MS); details: nHU-MS, total Jurkat extract
Source text: as §1, §2, §3
Unless specified elswhere, the nHU mixture was incubated at 4°C for 2 hours. After the incubation ended, the resin was separated from the supernatant by a brief centrifugation (15 s, 2000 g). Then, half of the supernatant was removed by pipetting without any delay to avoid any resin contamination; e.g., 100 μl of supernatant is collected if 200 μl of cell lysate was used as analyte. […]
as §5

[5] = tested on: DLG1_PDZ_1; test: nHU-MS, DLG1_PDZ_1 bait, total Jurkat extracts (Exploris MS)
Source text: as §1, §2
(§7) For single-point nHU experiments carried out at ~10 μM bait concentration, 50 μl of saturated streptavidin resin was mixed with 200 μl of cell lysate (2 mg/ml). […]
as §5

[6] = tested on: DLG1_PDZ_2; test: nHU-MS, DLG1_PDZ_2 bait, total Jurkat extracts (Exploris MS); details: Jurkat extract
Source text: as §1, §2, §7, §5

pKapp (nHU-MS) ([1]; SCRIB_PDZ_1&Jurkat (Exploris)): 4.689 | pKapp (nHU-MS) ([2]; SCRIB_PDZ_2&Jurkat (Exploris)): 4.691
B1: EWSR1 (protein, UniProt Q01844 1-656, looked up)
RNA-binding protein EWS: MASTDYSTYSQAAAQQGYSAYTAQPTQGYAQTTQAYGQQSYGTYGQPTDVSYTQAQTTATYGQTAYATSYGQPPTGYTTPTAPQAYSQPVQGYGTGAYDTTTATVTTTQASYAAQSAYGTQPAYPAYGQQPAATAPTRPQDGNKPTETSQPQSSTGGYNQPSLGYGQSNYSYPQVPGSYPMQPVTAPPSYPPTSYSSTQPTSYDQSSYSQQNTYGQPSSYGQQSSYGQQSSYGQQPPTSYPPQTGSYSQAPSQYSQQSSSYGQQSSFRQDHPSSMGVYGQESGGFSGPGENRSMSGPDNRGRGRGGFDRGGMSRGGRGGGRGGMGSAGERGGFNKPGGPMDEGPDLDLGPPVDPDEDSDNSAIYVQGLNDSVTLDDLADFFKQCGVVKMNKRTGQPMIHIYLDKETGKPKGDATVSYEDPPTAKAAVEWFDGKDFQGSKLKVSLARKKPPMNSMRGGLPPREGRGMPPPLRGGPGGPGGPGGPMGRMGGRGGDRGGFPPRGPRGSRGNPSGGGNVQHRAGDWQCPNPGCGNQNFAWRTECNQCKAPKPEGFLPPPFPPPGGDRGRGGPGGMRGGRGGLMDRGGPGGMFRGGRGGDRGGFRGGRGMDRGGFGGGRRGGPGGPPGPLMEQMGGRRGGRGGPGKMDKGEHRQERRDRPY

pKd ([3]; apparent, not filtered for significance): 3.962 | pKd ([4]; TX1BP3_PDZ bait, not filtered for significance (pKdsign N/D)): 3.0735
B2: NBDY: Negative regulator of P-body association (protein, UniProt A0A0U1RRE5 1-68, looked up)
Negative regulator of P-body …: MGDQPCASGRSTLPPGNAREAKPPKKRCLLAPRWDYPEGTPNGGSTTLPSAPPPASAGLKSHPPPPEK
BI [3]: 0.08384 | Difference log2 [3]: -0.1263 | Ratio SNX27/MBP [3]: 0.9162 | BI ([4]; TX1BP3_PDZ bait vs MBP): 0.0117 | Difference log2 ([4]; TX1BP3_PDZ vs MBP): -0.01698 | Ratio TX1BP3/MBP ([4]; TX1BP3_PDZ): 0.9883 | Ratio SCRIB_1/MBP ([1]; nHU-MS, SCRIB_PDZ_1, total Jurkat extract): 1.029 | BI ([1]; nHU-MS, SCRIB_PDZ_1 bait vs MBP, total Jurkat extract): -0.02908 | Difference log2 ([1]; nHU-MS, SCRIB_PDZ_1 vs MBP, total Jurkat extract): 0.04136 | Ratio SCRIB_2/MBP ([2]; nHU-MS, SCRIB_PDZ_2, total Jurkat extract): 1.014 | BI ([2]; nHU-MS, SCRIB_PDZ_2 bait vs MBP, total Jurkat extract): -0.01381 | Difference log2 ([2]; nHU-MS, SCRIB_PDZ_2 vs MBP, total Jurkat extract): 0.01978 | Ratio DLG1_1/MBP ([5]; DLG1_PDZ_1, total Jurkat extract): 1.036 | BI ([5]; DLG1_PDZ_1 bait vs MBP, total Jurkat extract): -0.03605 | Difference log2 ([5]; DLG1_PDZ_1 vs MBP, total Jurkat extract): 0.0511 | Difference log2 ([6]; DLG1_PDZ_2 bait vs MBP): 0.1631 | Ratio DLG1_2/MBP ([6]; DLG1_PDZ_2 bait vs MBP): 1.12 | BI ([6]; DLG1_PDZ_2 bait): -0.1197
